Assay results published in patent US9724381B2 (THE ADMINISTRATORS OF THE TULANE EDUCATIONAL FUND, priority 2009, dated 2017).
Where no end group is shown, it is not given here. [ ]: non-standard residue; d: D form. The star is where a group is joined. d2Nal = N[C@H](Cc1ccc2ccccc2c1)C(=O)O; Cha = N[C@@H](CC1CCCCC1)C(=O)O; dCha = N[C@H](CC1CCCCC1)C(=O)O; Picolinoyl = O=C(c1ccccn1)*; Nle = CCCC[C@H](N)C(=O)O; dPal = not defined here; Aib = CC(C)(N)C(=O)O; βAla = NCCC(=O)O; iPr = CC(C)*

How the values were obtained:
[1] = biological target: T1, Ghrelin/GHRP/GHS Receptor (Rattus norvegicus, UniProt O08725); assay: In vitro GH release from cell culture of pituitary cells; format: cell-based; design: After dispersion, the cells were collected by centrifugation, wash with DMEM and placed into culture well; endogenous in cells; host or cells: dispersed primary rat anterior pituitary cells; settings: Table 8
T1 sequence (O08725 whole entry): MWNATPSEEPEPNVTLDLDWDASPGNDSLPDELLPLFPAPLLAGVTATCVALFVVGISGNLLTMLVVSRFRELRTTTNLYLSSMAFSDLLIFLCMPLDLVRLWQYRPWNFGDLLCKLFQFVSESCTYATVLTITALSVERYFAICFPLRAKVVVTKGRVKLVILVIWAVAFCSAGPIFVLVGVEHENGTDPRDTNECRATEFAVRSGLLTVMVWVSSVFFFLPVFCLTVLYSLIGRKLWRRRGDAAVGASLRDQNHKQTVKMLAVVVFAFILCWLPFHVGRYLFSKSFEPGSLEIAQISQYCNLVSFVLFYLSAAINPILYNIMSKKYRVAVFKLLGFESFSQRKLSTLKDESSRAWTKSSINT
Description: In vitro GH Release-Female rats of the CD-1 strain were housed in a constant temperature room at 24° C. with 14 h light and 10 h darkness. The rats were fed Purina Rat chow and water at libitum. All studies were started between 0800-1000 hours. Pituitaries of mature female Sprague Dawley rats were rapidly removed after decapitation, neurointermediate lobe discarded and then placed in a pH 7.4 buffer. The pituitaries were cut into ˜3-mm pieces and then transferred to a flask containing HEPS buffer with trypsin and incubated at 37° C. Cells were triturated several times during this period. After dispersion, the cells were collected by centrifugation, wash with DMEM and placed into culture well. Cell cultures were maintained for 4 days at 37° with 8% CO2 added to the incubator atmosphere. After 4 days in culture, cells were washed with lactated Ringer's solution adjusted to pH 7.2-7.4 and then vehicle, peptide alone or peptide plus stimulator was added to media. Incubation time was 60-120 minutes after which media was removed from each well for GH determination. The GH RIA reagents were distributed by the NIH. Control data was collected from cell cultures treated with only the corresponding vehicle in the absence of peptide or stimulator. Control stimulated data was collected from cell cultures treated with stimulator alone in the absence of any peptide.

[2] = biological target: T1, Ghrelin/GHRP/GHS Receptor; assay: In vivo GH release in rat (serum GH by RIA after i.v. peptide); settings: Table 3
Description: For the in vivo assay of GH Release in rat, immature female Sprague Dawley rats were obtained from Charles River from Wilmington, Mass. After arrival they were housed at 25° C. with a 14:10 h light:dark cycle. Water and Purina rat chow were available at libitum. Pups were weaned at 21 days of age.
Immature twenty six day old female Sprague Dawley rats, 3-6 rats per treatment dose, were pretreated with pentobarbital 20 minutes before iv injection of vehicle/peptide or peptide plus stimulator. Injection was made as a 0.1 ml solution. For the non-pentobarbital treated rat assay, peptides were administered iv into the tail vein of conscious rats. All animals were sacrificed by guillotine after iv peptide or vehicle. Trunk blood was collected at +10-15 minutes […], allowed to clot, centrifuged and serum stored until assayed for GH levels by RIA. The GH RIA reagents were distributed by the NIH. Control data was collected from rats treated with only the corresponding vehicle in the absence of peptide or stimulator. Control stimulated data was collected from rats treated with stimulator alone in the absence of any peptide.

[3] = peptide antagonist dosage 3 (head prints μg/i.v.)
[4] = peptide antagonist dosage 10 (head prints μg/i.v.)
[5] = peptide antagonist dosage 30 (head prints μg/i.v.)
[6] = peptide antagonist dosage 100 (head prints μg/i.v.)
[7] = peptide antagonist dosage 1 (head prints μg/i.v.)

| Substance | Unstimulated Basal GH release from cell cultures of pituitary cells [1, 3] [ng/mL] | Unstimulated Basal GH release from cell cultures of pituitary cells [1, 4] [ng/mL] | Unstimulated Basal GH release from cell cultures of pituitary cells [1, 5] [ng/mL] | Unstimulated Basal GH release from cell cultures of pituitary cells [1, 6] [ng/mL] | Unstimulated Basal GH release from cell cultures of pituitary cells [1, 7] [ng/mL] | Unstimulated Basal GH Release from rat ([2]; peptide alone 30 μg i.v.) [ng/mL] | Unstimulated Basal GH Release from rat ([2]; peptide alone 100 μg i.v.) [ng/mL] |
| --- | --- | --- | --- | --- | --- | --- | --- |
| Ac-DLys-Tyr-DTrp-DTrp-Phe-NH2 (Ac-[dK]Y[dW][dW]F-NH2; SMILES CC(=O)N[C@H](CCCCN)C(=O)N[C@@H](Cc1ccc(O)cc1)C(=O)N[C@H](Cc1c[nH]c2ccccc12)C(=O)N[C@H](Cc1c[nH]c2ccccc12)C(=O)N[C@@H](Cc1ccccc1)C(N)=O) | 105 ± 8 | 950 ± 91 | 782 ± 56 | 756 ± 1 |  |  |  |
| Ac-DβNal-DTrp-NH2 | 1264 ± 2 | 980 ± 72 | 699 ± 7 |  |  |  |  |
| Ac-DβNal-PicLys-ILys-DPhe-NH2 (Ac-[d2Nal]K(Picolinoyl)K(iPr)[dF]-NH2; SMILES CC(=O)N[C@H](Cc1ccc2ccccc2c1)C(=O)N[C@@H](CCCCNC(=O)c1ccccn1)C(=O)N[C@@H](CCCCNC(C)C)C(=O)N[C@H](Cc1ccccc1)C(N)=O) [Ac-DβNal-PlcLys-ILys-DPhe-NH2] | 1013 ± 207 | 976 ± 13 | 928 ± 16 |  |  |  |  |
| Arg-DTrp-Leu-Tyr-Trp-Pro(cyclic Arg-Pro) | 1480 ± 19 | 802 ± 26 | 601 ± 16 | 509 ± 49 |  |  |  |
| DAla-DcyclohexylAla-Ala-Ala-Phe-DPhe-Nle-NH2 ([dA][dCha]AAF[dF][Nle]-NH2; N-terminus assumed; SMILES CCCC[C@H](NC(=O)[C@@H](Cc1ccccc1)NC(=O)[C@H](Cc1ccccc1)NC(=O)[C@H](C)NC(=O)[C@H](C)NC(=O)[C@@H](CC1CCCCC1)NC(=O)[C@@H](C)N)C(N)=O) | 177 ± 44 | 271 ± 38 | 376 ± 28 |  | 286 ± 75 |  |  |
| DLys-Tyr-DTrp-DTrp-Phe-NH2 ([dK]Y[dW][dW]F-NH2; N-terminus assumed; SMILES NCCCC[C@@H](N)C(=O)N[C@@H](Cc1ccc(O)cc1)C(=O)N[C@H](Cc1c[nH]c2ccccc12)C(=O)N[C@H](Cc1c[nH]c2ccccc12)C(=O)N[C@@H](Cc1ccccc1)C(N)=O) | 1175 ± 77 | 1129 ± 6 | 744 ± 44 |  | 1451 ± 19 |  |  |
| DPal-Phe-DTrp-Phe-Met-NH2 ([dPal]F[dW]FM-NH2; reading uncertain; also: printed as DPal-Phe-DTrp-Phe-Met-NH2) | 1081 ± 50 | 997 ± 30 | 425 ± 25 |  |  |  |  |
| DPal-Trp-DPhe-Phe-Met-NH2 ([dPal]W[dF]FM-NH2; reading uncertain; also: printed as DPal-Trp-DPhe-Phe-Met-NH2) | 1105 ± 18 | 891 ± 4 | 567 ± 24 |  |  |  |  |
| DPhe-Ala-Phe-DPal-NH2 ([dF]AF[dPal]-NH2; reading uncertain; also: printed as DPhe-Ala-Phe-DPal-NH2) | 170 ± 19 | 181 ± 31 | 161 ± 20 | 146 ± 21 |  |  |  |
| DPhe-Ala-Phe-DPhe-Lys-NH2 ([dF]AF[dF]K-NH2; N-terminus assumed; SMILES C[C@H](NC(=O)[C@H](N)Cc1ccccc1)C(=O)N[C@@H](Cc1ccccc1)C(=O)N[C@H](Cc1ccccc1)C(=O)N[C@@H](CCCCN)C(N)=O) |  | 267 ± 27 | 276 ± 65 | 360 ± 84 |  |  |  |
| DPhe-Trp-DPhe-Phe-Met-NH2 ([dF]W[dF]FM-NH2; N-terminus assumed; SMILES CSCC[C@H](NC(=O)[C@H](Cc1ccccc1)NC(=O)[C@@H](Cc1ccccc1)NC(=O)[C@H](Cc1c[nH]c2ccccc12)NC(=O)[C@H](N)Cc1ccccc1)C(N)=O) | 1146 ± 34 | 1086 ± 32 | 871 ± 89 |  |  |  |  |
| His-DTrp-DTrp-Lys-NH2 (H[dW][dW]K-NH2; N-terminus assumed; SMILES NCCCC[C@H](NC(=O)[C@@H](Cc1c[nH]c2ccccc12)NC(=O)[C@@H](Cc1c[nH]c2ccccc12)NC(=O)[C@@H](N)Cc1c[nH]cn1)C(N)=O) | 1124 ± 37 | 749 ± 10 | 615 ± 41 |  |  |  |  |
| αAib-DTrp-DAla-cyclohexylAla-NH2 ([Aib][dW][dA][Cha]-NH2; N-terminus assumed; SMILES C[C@@H](NC(=O)[C@@H](Cc1c[nH]c2ccccc12)NC(=O)C(C)(C)N)C(=O)N[C@@H](CC1CCCCC1)C(N)=O) | 1103 ± 18 | 994 ± 22 | 704 ± 115 |  | 1086 ± 52 |  |  |
| αAib-DTrp-DcyclohexylAla-NH2 ([Aib]-[dW]-[dCha]-NH2; N-terminus assumed; SMILES CC(C)(N)C(=O)N[C@H](Cc1c[nH]c2ccccc12)C(=O)N[C@H](CC1CCCCC1)C(N)=O) | 826 ± 32 | 602 ± 53 | 492 ± 11 |  | 980 ± 44 |  |  |
| βAla-Trp-DAla-DTrp-Phe-NH2 ([βAla]W[dA][dW]F-NH2; N-terminus assumed; SMILES C[C@@H](NC(=O)[C@H](Cc1c[nH]c2ccccc12)NC(=O)CCN)C(=O)N[C@H](Cc1c[nH]c2ccccc12)C(=O)N[C@@H](Cc1ccccc1)C(N)=O) |  |  |  |  |  | 341 ± 46 | 636 ± 171 |
